Consider 2 molecules from US20250276050A1.

Experiment [1] deals with heterodimeric IL-1RL1/IL-1RAcP on the surface of HEK-Blue IL-33 cells (human) (UniProt Q01638). The experiment is described as follows: cell-based or functional assay.
The target in experiment [2] is receptor subunits IL4Rα and IL-13Rα1 naturally expressed on HEK-Blue IL-4/IL-13 cells (UniProt P24394). The experiment is described as follows: cell-based or functional assay.

In experiment [1], “His6-cIL-33-CS (amino acids 110-263 of dog IL-33 with the 3 cysteines replaced by serine, start methionine and N-terminal His6-tag, expressed in E. coli) (from UniProt O97863 110-263) (ligand)” showed an SEAP reporter enzyme readout, EC50 (HEK-Blue IL-33 cells) of 10 ng/mL.

B1: cIL-13-His6 (canine IL-13 with start methionine and C-terminal His6-tag, expressed in E. coli) (ligand)
chain: MSPSPVTPSPTLKELIEELVNITQNQASLCNGSMVWSVNLTAGMYCAALESLINVSDCSAIQRTQRMLKALCSQKPAAGQISSERSRDTKIEVIQLVKNLLTYVRGVYRHGNFRHHHHHH
Consider B1, for which, in experiment [2], the SEAP reporter enzyme readout, EC50 (HEK-Blue IL-4/IL-13 cells) was 2 ng/mL.
